In FireProtDB (doi:10.1016/j.bpj.2010.04.076):

B1: Adenylate kinase, P16304 (parent)
chain: MNLVLMGLPGAGKGTQGERIVEDYGIPHISTGDMFRAAMKEETPLGLEAKSYIDKGELVPDEVTIGIVKERLGKDDCERGFLLDGFPRTVAQAEALEEILEEYGKPIDYVINIEVDKDVLMERLTGRRICSVCGTTYHLVFNPPKTPGICDKDGGELYQRADDNEETVSKRLEVNMKQTQPLLDFYSEKGYLANVNGQQDIQDVYADVKDLLGGLKK

Variants of: B1
Conditions: Bacillus subtilis (strain 168), pH 7, CD, transition: 2, reversible: yes, structure 2EU8, whole UniProt chain shown; for ddG of mutation (higher = less stable) / unfolding free energy: 20 °C, GdnHCl, Phosphate buffer 10mM; for Tm / change of melting temperature, mutant - wild type (higher = more stable): Thermal, KH2PO4 10mM

With Q199R the “ddG of mutation (higher = less stable)” value was -0.48 kcal/mol, the unfolding free energy was 3.82 kcal/mol and the Tm was 49.5 °C. The “change of melting temperature, mutant - wild type (higher = more stable)” value (from here on “change of melting temperature, mutant”) was 1.1 °C.

With Q199R A193V the “ddG of mutation (higher = less stable)” value was -2.87 kcal/mol, the unfolding free energy was 6.21 kcal/mol and the Tm was 54.6 °C. The “change of melting temperature, mutant” value was 6.2 °C.

In the case of Q199R Q16L, the “ddG of mutation (higher = less stable)” value is reported as -3.35 kcal/mol, the unfolding free energy is reported as 6.69 kcal/mol and the Tm is reported as 63.3 °C. For the same variant, the “change of melting temperature, mutant” value was 14.9 °C.

In the case of A193V, the Tm is reported as 48.9 °C and the “change of melting temperature, mutant” value is reported as 0.5 °C.

For Q199R T179I, the “ddG of mutation (higher = less stable)” value was -2.4 kcal/mol, the unfolding free energy was 5.74 kcal/mol and the Tm was 53.3 °C. The “change of melting temperature, mutant” value was 4.9 °C.

In the case of G214R, the Tm is reported as 49.8 °C and the “change of melting temperature, mutant” value is reported as 1.4 °C.

In the case of Q199R G213E, the “ddG of mutation (higher = less stable)” value is reported as -1.68 kcal/mol, the unfolding free energy is reported as 5.02 kcal/mol and the Tm is reported as 51.4 °C. The “change of melting temperature, mutant” value was 3 °C.

For Q199R G213Q, the Tm was 39.3 °C and the “change of melting temperature, mutant” value was -9.1 °C.

With Q199R G213A the Tm was 37.9 °C and the “change of melting temperature, mutant” value was -10.5 °C.

With Q199R G214A the Tm was 49.1 °C and the “change of melting temperature, mutant” value was 0.7 °C.

In the case of Q199R G214R, the “ddG of mutation (higher = less stable)” value is reported as -2.63 kcal/mol, the unfolding free energy is reported as 5.97 kcal/mol and the Tm is reported as 53.4 °C. For the same variant, the “change of melting temperature, mutant” value was 5 °C.

For Q199R G214K, the Tm was 48.4 °C and the “change of melting temperature, mutant” value was 0 °C.

In the case of T179I, the Tm is reported as 47.8 °C and the “change of melting temperature, mutant” value is reported as -0.6 °C.
